system: Escherichia coli TOP10; experiment: shrunken log2 fold change of peptide-encoding DNA abundance (4.5 h post-induction vs induction); higher = less antimicrobial activity (less host growth inhibition); conditions: time post-induction: 4.5 h; library: site-saturation at positions 5, 18, 19, 20
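Also: peptides expressed intracellularly from a pBAD plasmid library in pooled LB shake-flask culture, induced with 0.3% L-arabinose, DNA abundance read by NGS, three biological replicates, DESeq2 with apeglm shrinkage.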

Sequence | shrunken log2 fold change
RRIRFRPPRLPRPRPRPFYYPRP | -0.777
RRIRYRPPRLPRPRPRPQHKPRP | -0.547
RRIRDRPPRLPRPRPRPDFIPRP | 0.0951
RRIRSRPPRLPRPRPRPWMEPRP | -0.384
RRIRPRPPRLPRPRPRPEGIPRP | -0.00608
RRIRCRPPRLPRPRPRPLCWPRP | 0.132
RRIRCRPPRLPRPRPRPTWQPRP | 0.288
RRIRKRPPRLPRPRPRPFQLPRP | 0.0661
RRIRIRPPRLPRPRPRPHGKPRP | -0.326
RRIRWRPPRLPRPRPRPIVDPRP | -0.0254
RRIRSRPPRLPRPRPRPMQHPRP | -0.122
RRIRLRPPRLPRPRPRPCNQPRP | -1.15
RRIRCRPPRLPRPRPRPVVYPRP | -0.0321
RRIRARPPRLPRPRPRPQHLPRP | -0.0998
RRIRGRPPRLPRPRPRPEPTPRP | 1.52
RRIRIRPPRLPRPRPRPSAPPRP | -0.00138
RRIRKRPPRLPRPRPRPDHRPRP | 0.139
RRIRMRPPRLPRPRPRPEHVPRP | 0.0396
RRIRHRPPRLPRPRPRPGVKPRP | -0.0148
RRIRGRPPRLPRPRPRPLCIPRP | 0.366
RRIRRRPPRLPRPRPRPNLRPRP | 0.00766
RRIRWRPPRLPRPRPRPEELPRP | -0.00088
RRIRDRPPRLPRPRPRPYMSPRP | -0.00753
RRIRIRPPRLPRPRPRPQGKPRP | -0.385
RRIRMRPPRLPRPRPRPREAPRP | 1.82

Sequence | shrunken log2 fold change
RRIRVRPPRLPRPRPRPGRCPRP | 0.627
RRIRCRPPRLPRPRPRPDHWPRP | -0.109
RRIRMRPPRLPRPRPRPFMQPRP | -0.00899
RRIRHRPPRLPRPRPRPTGQPRP | 0.0378
RRIRARPPRLPRPRPRPKKVPRP | 0.708
RRIRLRPPRLPRPRPRPCGPPRP | -0.107
RRIRFRPPRLPRPRPRPPCCPRP | 0.0896
RRIRMRPPRLPRPRPRPHTMPRP | 0.124
RRIRFRPPRLPRPRPRPAPQPRP | 0.666
RRIRMRPPRLPRPRPRPTTAPRP | 1.19
RRIRNRPPRLPRPRPRPPMNPRP | -0.0606
RRIRERPPRLPRPRPRPKCYPRP | -1.04
RRIRSRPPRLPRPRPRPMSNPRP | 0.129
RRIRLRPPRLPRPRPRPLFDPRP | -0.148
RRIRTRPPRLPRPRPRPFCFPRP | -0.134
RRIRARPPRLPRPRPRPMLFPRP | 0.674
RRIRWRPPRLPRPRPRPESAPRP | 1.15
RRIRYRPPRLPRPRPRPDLTPRP | -0.0272
RRIRPRPPRLPRPRPRPETTPRP | -0.0108
RRIRIRPPRLPRPRPRPHFTPRP | -0.0792
RRIRWRPPRLPRPRPRPSVEPRP | 0.172
RRIRIRPPRLPRPRPRPVMPPRP | -0.142
RRIRQRPPRLPRPRPRPNVNPRP | -0.543
RRIRMRPPRLPRPRPRPEPKPRP | 2.51
RRIRSRPPRLPRPRPRPKLQPRP | 0.117

Sequence | shrunken log2 fold change
RRIRERPPRLPRPRPRPPFNPRP | -0.275
RRIRWRPPRLPRPRPRPSQTPRP | 0.657
RRIRVRPPRLPRPRPRPQCHPRP | -0.0451
RRIRTRPPRLPRPRPRPSCYPRP | -0.654
RRIRNRPPRLPRPRPRPKCVPRP | -0.0346
RRIRSRPPRLPRPRPRPQMKPRP | -0.32
RRIRVRPPRLPRPRPRPHWMPRP | -0.32
RRIRERPPRLPRPRPRPQAVPRP | 0.0552
RRIRSRPPRLPRPRPRPCGSPRP | 0.102
RRIRLRPPRLPRPRPRPCESPRP | 0.0102
RRIRYRPPRLPRPRPRPPYRPRP | -0.714
RRIRLRPPRLPRPRPRPMDFPRP | -0.0499
RRIRTRPPRLPRPRPRPHLLPRP | -0.411
RRIRHRPPRLPRPRPRPMRKPRP | 0.0179
RRIRGRPPRLPRPRPRPVTAPRP | 0.74
RRIRVRPPRLPRPRPRPAYTPRP | -0.286
RRIRKRPPRLPRPRPRPFCMPRP | -0.115
RRIRIRPPRLPRPRPRPMHTPRP | 0.0542
RRIRLRPPRLPRPRPRPSLFPRP | -0.373
RRIRWRPPRLPRPRPRPIQTPRP | -0.0178
RRIRGRPPRLPRPRPRPVYAPRP | 0.0566
RRIRVRPPRLPRPRPRPWPTPRP | 0.266
RRIRPRPPRLPRPRPRPRFFPRP | 0.211
RRIRFRPPRLPRPRPRPENAPRP | 0.402
RRIRHRPPRLPRPRPRPFHKPRP | -0.0218

Source: the supplement of paper PMC9112550, “Optimization of the antimicrobial peptide Bac7 by deep mutational scanning” (BMC Biology, 2022)
